Assay results reported in article PMC7082139, “Molecular Mechanisms of Phosphate Stress Activation of Pseudomonas aeruginosa Quorum Sensing Systems”.

T1: PhoB (Pseudomonas aeruginosa PAO1, UniProt P23620 1-229)
T1 sequence: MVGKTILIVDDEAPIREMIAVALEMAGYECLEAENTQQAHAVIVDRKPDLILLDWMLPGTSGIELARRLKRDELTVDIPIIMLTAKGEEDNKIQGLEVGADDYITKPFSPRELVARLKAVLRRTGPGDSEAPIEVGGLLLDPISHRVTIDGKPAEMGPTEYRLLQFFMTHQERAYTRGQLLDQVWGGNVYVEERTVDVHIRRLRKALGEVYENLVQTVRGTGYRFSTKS

B1: P3 (downstream of pho box) (dsDNA)
DNA 1: TTGCATAAATTCTTCAGCTTCCTATTTGGAGGAAGTGAAG
DNA 2: CTTCACTTCCTCCAAATAGGAAGCTGAAGAATTTATGCAA
B2: P1+P2 (dsDNA)
DNA 1: TAGCAAGGGTCCGGGTTCACCGAAATCTATCTCATTTGCTAGTTATAAAATTATGAAAT
DNA 2: ATTTCATAATTTTATAACTAGCAAATGAGATAGATTTCGGTGAACCCGGACCCTTGCTA
B3: P1 (upstream of pho box) (dsDNA)
DNA 1: TAGCAAGGGTCCGGGTTCACCGAAATCTATCTCATTTGCTA
DNA 2: TAGCAAATGAGATAGATTTCGGTGAACCCGGACCCTTGCTA
B4: P2+P3 (dsDNA)
DNA 1: GTTATAAAATTATGAAATTTGCATAAATTCTTCAGCTTCCTATTTGGAGGAAGTGAAG
DNA 2: CTTCACTTCCTCCAAATAGGAAGCTGAAGAATTTATGCAAATTTCATAATTTTATAAC
B5: lasI promoter (dsDNA)
DNA 1: TGCTCTGATCTTTTCGGACGTTTCTTCGAGCCTAGCAAGGGTCCGGGTTCACCGAAATCTATCTCATTTGCTAGTTATAAAATTATGAAATTTGCATAAATTCTTCAGCTTCCTATTTGGAGGAAGTGAAG
DNA 2: CTTCACTTCCTCCAAATAGGAAGCTGAAGAATTTATGCAAATTTCATAATTTTATAACTAGCAAATGAGATAGATTTCGGTGAACCCGGACCCTTGCTAGGCTCGAAGAAACGTCCGAAAAGATCAGAGCA

Tests used:
PhoB = biological target: T1, PhoB; test: EMSA; details: protein: recombinant; tags: C-terminal His (pET-28b, NcoI-XhoI); chain copies: 2; label: biotin 3'-end; blunt
RsaL = RsaL (Pseudomonas aeruginosa PAO1, UniProt Q9X7H4 1-80); test: EMSA; RsaL-specific shift; displaced by increasing PhoB (competes at 3 uM); details: protein: recombinant; tags: C-terminal His (pET-28b); chain copies: 2; label: biotin 3'-end; blunt
PhoB(D54A) = PhoB(D54A) (Pseudomonas aeruginosa PAO1, UniProt P23620 1-229, D54A); test: EMSA; details: protein: recombinant; tags: C-terminal His (pET-28b); chain copies: 2; label: biotin 3'-end; blunt

Binder | binding result (PhoB) | binding result (RsaL) | binding result (PhoB(D54A))
B1 | no binding |  | 
B2 | binds |  | 
B3 | no binding |  | 
B4 | binds |  | 
B5 | binds | binds | binds
